Test results: US10858688 (KYOTO UNIVERSITY, dated 2020)
Where no end group is shown, it is not given here. Atto 488 = fluorescent body linked to the N terminus

Biological target: T1, actin filament in fixed Xenopus laevis XTC cells (Xenopus laevis)
T1 construct: whole, on cells; Polymer of actin in fixed cells
Assay: speckle lifetime distribution in fixed XTC cells, 10 ms/frame at 100 Hz, single exponential fit (FIG. 9a)

- half-life: 0.023 s
B1: Lifeact peptide (sequence number 19) with an Atto 488 fluorescent body linked to an N terminus (peptide)
peptide: {Atto 488}-MGVADLIKKFESISKEE
notes: Purchased from Sigma-Aldrich; also called Atto488-Lifeact; Atto 488-Lifeact
